The values that follow come from US20210147549A1.

Assay [1] deals with human recombinant CD64 (Fc gamma receptor I) (human) (UniProt P12314). Briefly: SPR (Biacore T200), construct captured on Protein A, soluble CD64 as analyte. For orientation: SPR reads the build-up and loss of mass on a sensor chip optically.
For assay [2], the target named is FcγRIIIa V158 on cells (TR-FRET assay) (UniProt P08637). Nature of the assay: TR-FRET competition (CisBio) on cells bearing labeled receptor, vs labeled competitor antibody.
The target of assay [3] is FcγRIIa H131 (CD32a) on cells (human) (UniProt P12318). Described as above.
In assay [4] the target is FcγRIIb on cells (TR-FRET assay) (UniProt P31994). Described as above.
For assay [5], the target named is FcγRIIIa on effector cells (Jurkat/FcγRIIIa cells, NK cells) (UniProt P08637). Nature of the assay: cell-based or functional assay.
FcγRIIIa on effector cells (Jurkat/FcγRIIIa cells, NK cells), sequence (P08637 17-254): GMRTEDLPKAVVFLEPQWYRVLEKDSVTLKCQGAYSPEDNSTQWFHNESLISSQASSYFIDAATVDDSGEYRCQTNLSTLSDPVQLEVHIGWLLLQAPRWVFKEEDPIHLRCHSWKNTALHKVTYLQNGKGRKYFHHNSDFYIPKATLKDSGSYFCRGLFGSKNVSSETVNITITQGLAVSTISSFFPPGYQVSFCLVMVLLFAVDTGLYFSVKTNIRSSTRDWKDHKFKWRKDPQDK

human recombinant CD64 (Fc gamma receptor I) (human), sequence (P12314 16-288 limits assumed): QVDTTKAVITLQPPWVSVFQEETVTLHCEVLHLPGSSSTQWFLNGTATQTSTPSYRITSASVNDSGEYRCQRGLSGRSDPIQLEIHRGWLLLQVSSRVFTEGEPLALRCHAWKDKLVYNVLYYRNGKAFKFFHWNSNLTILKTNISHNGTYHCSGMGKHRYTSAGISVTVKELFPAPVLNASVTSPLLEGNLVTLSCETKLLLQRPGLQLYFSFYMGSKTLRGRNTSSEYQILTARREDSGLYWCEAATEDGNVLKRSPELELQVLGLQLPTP
FcγRIIa H131 (CD32a) on cells (human), sequence (P12318 34-317): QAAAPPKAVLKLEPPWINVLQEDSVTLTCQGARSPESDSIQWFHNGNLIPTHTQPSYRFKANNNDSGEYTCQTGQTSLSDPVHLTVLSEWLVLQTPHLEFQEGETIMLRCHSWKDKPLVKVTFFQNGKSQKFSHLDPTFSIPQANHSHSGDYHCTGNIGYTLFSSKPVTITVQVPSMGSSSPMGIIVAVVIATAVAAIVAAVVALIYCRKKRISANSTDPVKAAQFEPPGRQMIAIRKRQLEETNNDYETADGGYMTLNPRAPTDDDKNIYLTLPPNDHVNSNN
FcγRIIb on cells (TR-FRET assay), sequence (P31994 43-310 limits assumed): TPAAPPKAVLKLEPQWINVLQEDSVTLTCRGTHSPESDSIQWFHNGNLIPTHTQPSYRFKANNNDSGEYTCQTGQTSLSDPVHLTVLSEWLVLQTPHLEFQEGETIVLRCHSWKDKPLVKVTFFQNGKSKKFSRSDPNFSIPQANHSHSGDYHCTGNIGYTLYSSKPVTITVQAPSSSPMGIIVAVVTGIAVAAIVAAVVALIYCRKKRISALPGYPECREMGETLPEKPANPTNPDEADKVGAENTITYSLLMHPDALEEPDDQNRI
FcγRIIIa V158 on cells (TR-FRET assay), sequence (P08637 17-254 F176V limits assumed): as the sequence (P08637 17-254) above, with F160V counted along it

For “anti-CD20 monoclonal antibody with the CDRs of Gazyva (obinutuzumab)”, the CD64 Valency by SPR in assay [1] was found to be 1.5. Moreover, the IC50 came to 428 nM in assay [2], 1270 nM in assay [3] and 3290 nM in assay [4].

Regarding “avelumab anti-PD-L1 monoclonal antibody, afucosylated”, the EC50 (nM), Mean; ADCC in KILR-A549 cells with NK cells in assay [5] worked out at 0.0054 nM.

The substance “avelumab anti-PD-L1 monoclonal antibody, fucosylated (S1A-AA-Ave-001, generated in-house)” had an EC50 (nM), Mean; FcyRIIIa signaling in an ADCC reporter assay in assay [5] of 0.049 nM. Also, the CD64 Valency by SPR in assay [1] is 1.3.

The term IC50 denotes the concentration that inhibits the measured activity by half. Low readings indicate inhibition by little substance, high ones a need for much substance.
